The values below come from patent US20220088180A1.

The first experiment addresses HLA-A*01:01 (human). The experiment is described as follows: radioligand competition, purified MHC.
In the case of FASEAARVV (modifications not checked) [… (SEQ ID NO: 17)], the IC50 was greater than 70 µM.

EEFEPSTQYEY (modifications not checked) [… (SEQ ID NO: 20)] yielded an IC50 greater than 70 µM.

Regarding FAVDAAKAY (modifications not checked) [… (SEQ ID NO: 28)], the 50% inhibitory concentration (IC50) is greater than 70 µM.

Another experiment has as its target HLA-A*02:01 (human). The experiment is described as follows: radioligand competition, purified MHC. For orientation: Loss of bound radioactivity is the signal in a displacement assay; it reports binding, not function.
Consider FASEAARVV (modifications not checked) [… (SEQ ID NO: 17)], for which the IC50 turned out to be 0.495 µM.

Molecule EEFEPSTQYEY (modifications not checked) [… (SEQ ID NO: 20)] came in with an IC50 greater than 70 µM.

Consider FAVDAAKAY (modifications not checked) [… (SEQ ID NO: 28)], for which the IC50 is greater than 70 µM.

The target in another experiment is HLA-A*26:01 (human). The experiment is described as follows: radioligand competition, purified MHC.
Regarding FASEAARVV (modifications not checked) [… (SEQ ID NO: 17)], the half-maximal inhibitory concentration (IC50) came out at 0.734 µM.

With EEFEPSTQYEY (modifications not checked) [… (SEQ ID NO: 20)], the IC50 was 18.8 µM.

Consider FAVDAAKAY (modifications not checked) [… (SEQ ID NO: 28)], for which the IC50 came out at 0.0067 µM.

The next experiment has as its target HLA-B*07:02 (human). As to the kind of experiment: radioligand competition, purified MHC.
In turn, FASEAARVV (modifications not checked) [… (SEQ ID NO: 17)] gave an IC50 of 8.55 µM.

Molecule EEFEPSTQYEY (modifications not checked) [… (SEQ ID NO: 20)] gave an IC50 greater than 70 µM.

Molecule FAVDAAKAY (modifications not checked) [… (SEQ ID NO: 28)] displayed a half-maximal inhibitory concentration (IC50) greater than 70 µM.

Another experiment has as its target HLA-B*15:01 (human). As to the kind of experiment: radioligand competition, purified MHC.
FASEAARVV (modifications not checked) [… (SEQ ID NO: 17)] displayed an IC50 of 2.55 µM.

EEFEPSTQYEY (modifications not checked) [… (SEQ ID NO: 20)] registered an IC50 of 0.078 µM.

FAVDAAKAY (modifications not checked) [… (SEQ ID NO: 28)] gave an IC50 of 0.0027 µM.

The next experiment has as its target HLA-B*18:01 (human). The experiment is described as follows: radioligand competition, purified MHC.
Consider FASEAARVV (modifications not checked) [… (SEQ ID NO: 17)], for which the IC50 was 49.5 µM.

On to EEFEPSTQYEY (modifications not checked) [… (SEQ ID NO: 20)], for which the IC50 worked out at 0.0011 µM.

Molecule FAVDAAKAY (modifications not checked) [… (SEQ ID NO: 28)] showed a half-inhibitory concentration (IC50) of 35.9 µM.

The next experiment concerns the target HLA-B*44:02 (human). The experiment is described as follows: radioligand competition, purified MHC.
FASEAARVV (modifications not checked) [… (SEQ ID NO: 17)] had an IC50 greater than 70 µM.

As to EEFEPSTQYEY (modifications not checked) [… (SEQ ID NO: 20)], the IC50 came out at 0.05 µM.

Consider FAVDAAKAY (modifications not checked) [… (SEQ ID NO: 28)], for which the IC50 is greater than 70 µM.

Another experiment addresses HLA-B*44:03 (human). As to the kind of experiment: radioligand competition, purified MHC.
The molecule FASEAARVV (modifications not checked) [… (SEQ ID NO: 17)] returned an IC50 greater than 70 µM.

In turn, EEFEPSTQYEY (modifications not checked) [… (SEQ ID NO: 20)] returned an IC50 of 0.00041 µM.

FAVDAAKAY (modifications not checked) [… (SEQ ID NO: 28)] showed an IC50 greater than 70 µM.

The target of a further experiment is HLA-B*51:01 (human). As to the kind of experiment: radioligand competition, purified MHC.
With FASEAARVV (modifications not checked) [… (SEQ ID NO: 17)], the IC50 worked out at 0.207 µM.

EEFEPSTQYEY (modifications not checked) [… (SEQ ID NO: 20)] had an IC50 greater than 70 µM.

Consider FAVDAAKAY (modifications not checked) [… (SEQ ID NO: 28)], for which the IC50 was greater than 70 µM.

The term IC50 denotes the midpoint of a concentration-inhibition curve.
